{"source": "IntAct's records for PubMed 19740107", "parents": {"B1": {"name": "Amphiregulin (Homo sapiens), P15514 (parent)", "chain": "MRAPLLPPAPVVLSLLILGSGHYAAGLDLNDTYSGKREPFSGDHSADGFEVTSRSEMSSGSEISPVSEMPSSSEPSSGADYDYSEEYDNEPQIPGYIVDDSVRVEQVVKPPQNKTESENTSDKPKRKKKGGKNGKNRRNRKKKNPCNAEFQNFCIHGECKYIEHLEAVTCKCQQEYFGERCGEKSMKTHSMIDSSLSKIALAAIAAFMSAVILTAVAVITVQLRRQYVRKYEGEAEERKKLRQENGNVHAIA"}}, "data": [{"variants_of": "B1", "details": "with S100A4, P26447", "values": [{"variant": "F153L", "effect of a mutation on the interaction": "decreasing interaction"}, {"variant": "C154A", "effect of a mutation on the interaction": "decreasing interaction"}]}, {"variants_of": "B1", "details": "with S100A4, P26447", "remark": "another data set of the same source", "values": [{"variant": "K171A", "effect of a mutation on the interaction": "decreasing interaction"}, {"variant": "C172L", "effect of a mutation on the interaction": "decreasing interaction"}, {"variant": "C170A", "effect of a mutation on the interaction": "decreasing interaction"}]}]}
